The values below come from article PMC6036693, “An iterative computational design approach to increase the thermal endurance of a mesophilic enzyme” (Biotechnology for Biofuels, 2018).

The data set deals with the molecule itself. Kind of data set: crystal structure; PDC_(2.03) at 6 mg/mL in 20 mM Tris pH 7.5, 100 mM NaCl, 1 mM MgCl2, 0.5 mM DTT, 0.1 mM TPP; crystals grown in 0.1 M MES monohydrate pH 6.0, 2.4 M ammonium sulfate at 20 °C; two molecules in the asymmetric unit.

B1: PDC_(2.03), computationally designed thermostable variant of Zymomonas mobilis pyruvate decarboxylase (enzyme)
chain: MDYTVGTYLAERLVQIGLKHHFAVAGDYNLVLLDNLLDNKNMEQVYCCNELNCGFSAEGYARAKGAAAAVVTYSVGALSAFDAIGGAYAENLPVILISGAPNNNDHAAAHVLHHALGKTDYHYQLEMAKNITAAAEAIYTPEEAPAKIDHVIKTALREKKPVYLEIACNIASMPCAAPGPASALFNDEASDEASLNAAVEETLKFIENRDKVAVLVGSKLRAAAAEEAAVKFADALGGAVATMAAAKSFFPEENPHYIGTSWGEVSYPGVEKTMKEADAVIALAPVFNDYSTTGWTDIPDPKKLVLAEPRSVVVNGIRFPSVHLKDYLTRLAEKVSKKTGALDFFKSLNAGELKKADPADPSAPLVNAEIARQIEDLLTPNTTVIAETGDSWFNAQRMKLPNGARVEYEMQWGHIGWSVPAAFGYAVGAPERRNILMVGDGSFQLTAQEVAQMVRLKLPVIIFLINNYGYTIEVMIHDGPYNNIKNWDYAALMEVFNGNGGYDSGAGKGLKAKTAAELEEAIKVALDNTDGPTLIECFIAREDCTEELVKWGERVAAANSRKPVNKLL
notes: the wild-type structures 2WVA and 2WVG served as design template and search model; Crystallised with thiamine pyrophosphate (TPP) and Mg2+; the asymmetric unit of 5TMA holds two molecules; also called variant 2.03; source: E. coli BL21 (DE3), purified (HisPur Cobalt column, Superdex 200 size-exclusion chromatography)
In the case of B1, the binding result was “binds”.
